Experiments:
[1] = molecular target: D474A-PfCpn60 (Plasmodium falciparum mitochondrial chaperonin 60, ATP hydrolysis-deficient mutant) (Plasmodium falciparum (isolate FCR-3/Gambia)); assay: negative stain electron microscopy
[2] = molecular target: D474A-PfCpn60 (Plasmodium falciparum mitochondrial chaperonin 60, ATP hydrolysis-deficient mutant) (Plasmodium falciparum (isolate FCR-3/Gambia)); assay: crystal structure; D474A-PfCpn60 with bound ATP; crystals from phosphate citrate buffer pH 4.4, 13% isopropanol, lithium sulfate; 3.69 Å; one heptameric ring in the asymmetric unit

## D474A-PfCpn60 (Plasmodium falciparum mitochondrial chaperonin 60, ATP hydrolysis-deficient mutant) (domain or fragment)
[1]
  stoichiometry N: 7
[2]
  stoichiometry N: 14

— article PMC7960994
